Assay results reported in paper PMC7716773, “Known Evolutionary Paths Are Accessible to Engineered ß-Lactamases Having Altered Protein Motions at the Timescale of Catalytic Turnover” (Frontiers in Molecular Biosciences, 2020).

Tested on: CO/N=C(\C(=O)N[C@@H]1C(=O)N2C(C(=O)O)=C(COC(C)=O)CS[C@H]12)c1csc(N)n1
Experiment: purified protein
Settings: 27°C, cefotaxime 12.5-200 μM, enzyme 5–70 nM

With “TEM-1 ß-lactamase (TEM-1) (Escherichia coli)” the Km was 1,500 ± 900 μM, the kcat was 1 ± 0.5 s⁻¹ and the kcat/Km was 680 ± 530 M⁻¹ s⁻¹.
